# Results as given in publication doi:10.1101/2021.09.17.460839.
# Numbering of substitutions follows the chain as printed. pKd: −log10 of the molar value.
# How the values were obtained:
# [1] = target: T1, Rv0792c G80D G80D (Mycobacterium tuberculosis) (UniProt O86331); assay: ALISA
# T1 sequence: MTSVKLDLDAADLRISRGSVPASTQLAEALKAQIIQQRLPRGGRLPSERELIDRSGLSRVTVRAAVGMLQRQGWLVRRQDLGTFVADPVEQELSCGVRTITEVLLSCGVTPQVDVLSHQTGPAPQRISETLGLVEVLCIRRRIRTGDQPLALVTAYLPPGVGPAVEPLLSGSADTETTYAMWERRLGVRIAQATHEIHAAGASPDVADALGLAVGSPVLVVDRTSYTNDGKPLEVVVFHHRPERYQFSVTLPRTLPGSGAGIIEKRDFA
# [2] = target: T2, Rv0792c R49A R49A (Mycobacterium tuberculosis) (UniProt O86331); assay: ALISA
# T2 sequence: T1 sequence with R49A, D80G
sequence,measurement,setting,value
TCTAGTCATTCGTCATAATCCCATCTGTTTCTTCCTCCTTCCGT [Rv0792c_2 aptamer (printed Rv0729c_2)],pKd,[1],6.92
same,pKd,[2],7.13
